{
  "source": "patent US20090215991A1",
  "data": [
    {"target": "extracellular region of human V158 FcγRIIIa with C-terminal 6xHis-tag and GST-tag (human) (UniProt P08637)", "sequence (P08637 17-208 F176V)": "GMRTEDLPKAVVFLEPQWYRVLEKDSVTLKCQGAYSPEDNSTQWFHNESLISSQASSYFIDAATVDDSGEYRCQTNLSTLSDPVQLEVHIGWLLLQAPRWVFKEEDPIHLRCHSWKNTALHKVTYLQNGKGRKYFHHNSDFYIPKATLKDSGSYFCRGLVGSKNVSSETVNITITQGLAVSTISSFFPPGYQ", "experiment": "SPR", "units": {"Fold WT": "fold"}, "values": [
      {"substance": "E272R alemtuzumab (antibody)", "Fold WT": 1.38},
      {"substance": "E283H alemtuzumab (antibody)", "Fold WT": 2.31},
      {"substance": "S304T alemtuzumab (antibody)", "Fold WT": 12.8},
      {"substance": "V284E alemtuzumab (antibody)", "Fold WT": 1.51}
    ]},
    {"target": "FcγRIIIa on human PBMCs expressing heterozygous V158/F158 FcγRIIIa (human) (UniProt P08637)", "sequence (P08637 17-254)": "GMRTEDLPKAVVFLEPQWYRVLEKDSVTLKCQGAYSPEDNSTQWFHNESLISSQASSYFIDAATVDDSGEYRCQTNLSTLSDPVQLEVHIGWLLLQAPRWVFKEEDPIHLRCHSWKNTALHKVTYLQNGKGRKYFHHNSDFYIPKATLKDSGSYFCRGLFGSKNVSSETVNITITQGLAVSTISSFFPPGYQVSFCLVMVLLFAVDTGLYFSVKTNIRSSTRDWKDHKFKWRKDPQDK", "experiment": "cell-based or functional assay", "values": [
      {"substance": "S239D/I332E alemtuzumab (antibody)", "ADCC log(EC50), DoHH-2 target cells": "0.49 log(ng/ml)"},
      {"substance": "V264I/I332E alemtuzumab (antibody)", "ADCC log(EC50), DoHH-2 target cells": "0.6 log(ng/ml)"}
    ]}
  ]
}
